# Source: paper PMC3458824, “Direct Observation of the Uptake of Outer Membrane Proteins by the Periplasmic Chaperone Skp” (PLoS ONE, 2012)
# Experiments:
# Assay in all cases: FRET or BRET; stopped-flow FRET; Cy5 labeled OmpC mutant in 8 M urea mixed 1:20 with Cy3 labeled Skp mutant; both 0.03 µM final; 50 mM PBS pH 7.0, 100 mM NaCl, 0.01% Tween 20, 25°C; Cy5 emission, fitted to three exponentials
# Details in all cases: both partners purified
# Skp-K55C-Cy3 = biological target: T1, Skp-K55C-Cy3 (Escherichia coli, UniProt P0AEU7 21-161, K55C, Cy3 (Cy3-maleimide) on the introduced cysteine at 55)
# T1 construct: Skp of Escherichia coli, each monomer 141 residues as printed; Extent of labeling greater than 90%; one dye on each of the three chains of the trimer; also called Cy3 labeled Skp mutant K55C; Skp-Cy3; source: E. coli BL21 (DE3), purified (Ni-NTA), labeled with Cy3-maleimide
# T1 sequence (looked up): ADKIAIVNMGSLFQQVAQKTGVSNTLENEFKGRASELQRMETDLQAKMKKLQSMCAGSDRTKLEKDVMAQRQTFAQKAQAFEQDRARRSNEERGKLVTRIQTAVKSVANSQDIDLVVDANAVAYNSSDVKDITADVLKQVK
# Skp-E82C-Cy3 = biological target: T2, Skp-E82C-Cy3 (Escherichia coli, UniProt P0AEU7 21-161, E82C, Cy3 (Cy3-maleimide) on the introduced cysteine at 82)
# T2 construct: Skp of Escherichia coli, each monomer 141 residues as printed; Extent of labeling greater than 90%; one dye on each of the three chains of the trimer; also called Cy3 labeled Skp mutant E82C; Skp-Cy3; source: E. coli BL21 (DE3), purified (Ni-NTA), labeled with Cy3-maleimide
# T2 sequence (looked up): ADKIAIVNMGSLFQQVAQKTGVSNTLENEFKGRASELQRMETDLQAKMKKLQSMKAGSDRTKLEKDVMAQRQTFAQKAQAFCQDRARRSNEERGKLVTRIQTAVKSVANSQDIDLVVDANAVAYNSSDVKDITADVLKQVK
# Skp-D128C-Cy3 = biological target: T3, Skp-D128C-Cy3 (Escherichia coli, UniProt P0AEU7 21-161, D128C, Cy3 (Cy3-maleimide) on the introduced cysteine at 128)
# T3 construct: Skp of Escherichia coli, each monomer 141 residues as printed; Extent of labeling greater than 90%; one dye on each of the three chains of the trimer; also called Cy3 labeled Skp mutant D128C; Skp-Cy3; source: E. coli BL21 (DE3), purified (Ni-NTA), labeled with Cy3-maleimide
# T3 sequence (looked up): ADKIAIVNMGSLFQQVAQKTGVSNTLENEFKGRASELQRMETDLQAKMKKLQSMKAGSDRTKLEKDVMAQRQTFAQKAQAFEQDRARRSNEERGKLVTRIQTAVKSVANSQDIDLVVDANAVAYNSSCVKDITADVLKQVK
binder,measurement,setting,value
"OmpC-D25C-Cy5 (natural protein, Escherichia coli, UniProt P06996 22-367, looked up, Cy5 (Cy5-maleimide) on the introduced cysteine at 25, Outer membrane protein OmpC of Escherichia coli; 346 residues as printed; Extent of labeling greater than 90%; also called Cy5 labeled OmpC mutant D25C; source: E. coli BL21 (DE3), purified (Ni-NTA) in 8 M urea, unfolded, labeled with Cy5-maleimide) AEVYNKDGNKLDLYGKVDGLHYFSCNKDVDGDQTYMRLGFKGETQVTDQLTGYGQWEYQIQGNSAENENNSWTRVAFAGLKFQDVGSFDYGRNYGVVYDVTSWTDVLPEFGGDTYGSDNFMQQRGNGFATYRNTDFFGLVDGLNFAVQYQGKNGNPSGEGFTSGVTNNGRDALRQNGDGVGGSITYDYEGFGIGGAISSSKRTDAQNTAAYIGNGDRAETYTGGLKYDANNIYLAAQYTQTYNATRVGSLGWANKAQNFEAVAQYQFDFGLRPSLAYLQSKGKNLGRGYDDEDILKYVDVGATYYFNKNMSTYVDYKINLLDDNQFTRDAGINTDNIVALGLVYQF",time constant τ1 of the fast phase,Skp-K55C-Cy3,73 ± 5.1 ms
same,time constant τ1 of the fast phase,Skp-E82C-Cy3,101 ± 6.9 ms
same,time constant τ1 of the fast phase,Skp-D128C-Cy3,143 ± 10 ms
